Reference: article PMC9367475

Tests used:
[1] = molecular target: DC-SIGN on THP-1 cells induced with PMA and IL-4 (DC-THP-1) (human (endogenous in THP-1)) (UniProt Q9NNX6)
[2] = molecular target: human DC-SIGN expressed on HEK 293T cells (DC-HEK) (human) (UniProt Q9NNX6)
[3] = molecular target: DC-SIGN on THP-1 cells induced with PMA and IL-4 (DC-THP-1) (human (endogenous in THP-1)) (UniProt Q9NNX6); assay: cell binding assay (immunofluorescence read on a microplate reader); DC-HEK or DC-THP-1 cells in microtiter wells (1 x 10^5 cells/well); spike pseudotypes pre-incubated with or without rfhSP-D (20 µg/ml) added for 2 h at room temperature; fixed, anti-spike and Alexa Fluor 488 secondary antibody
[4] = molecular target: human DC-SIGN expressed on HEK 293T cells (DC-HEK) (human) (UniProt Q9NNX6); assay: as above

| Substance | luciferase reporter activity (pseudotype transduction of DC-THP-1 cells), with rfhSP-D 20 µg/ml against untreated [1] [%] | luciferase reporter activity (pseudotype transduction of DC-HEK cells), with rfhSP-D 20 µg/ml against untreated [2] [%] | increase of binding with rfhSP-D (20 µg/ml) against untreated [3] [%] | increase of binding with rfhSP-D (20 µg/ml) against untreated [4] [%] |
| --- | --- | --- | --- | --- |
| SARS-CoV-2 spike protein on lentiviral pseudotypes (from UniProt P0DTC2 14-1273) (natural protein) | 90 | 190 |  |  |
| SARS-CoV-2 spike protein on lentiviral pseudotypes (from UniProt P0DTC2 14-1273) (natural protein; other documents disagree on this pair) |  |  | 25 | 50 |
